From patent US12491259B2, “Anti-variable MUC1* antibodies and uses thereof” (Minerva Biotechnologies Corporation, priority 2022, dated 2025)

What was measured:
[1] = system: T47D-MUC1* breast cancer cells; test: xCELLigence real-time killing assay (impedance); assay type: cell-based, human; conditions: for ADC concentration at which essentially all (near total) tumor cells were killed: readout 120 hours post ADC addition
Description: In this assay, impedance is measured in real-time. When the adherent cancer cells are killed and come off of the electrode surface, impedance (insulation) decreases. […] Either MNC2-MMAE, DAR 4.1, MN20A10-MMAE, DAR 5.8, MNC2-MMAF, DAR 3.7, MN20A10-MMAF, DAR 3.8, MNC2-Deruxtecan, DAR 7.2, or MN20A10-Deruxtecan, DAR 4.6, was then added to the cancer cells. […] Taxol and Triton are added as the positive killing control. […] Taxol and Triton are added as the positive killing control.
In this assay, impedance is measured in real-time. When the adherent cancer cells are killed and come off of the electrode surface, impedance (insulation) decreases. […] Either MNC2-Exatecan, DAR 8.2, MNC2-Deruxtecan, DAR 4.0, MNC2-MMAE, DAR 4.1, or free Exatecan at 50 μM, was then added to the cancer cells.
To assess real-time killing of target cancer cells including breast cancer cells (T47D), non-small cell lung cancer cells (NCI-H1975) and pancreatic cancer cells (HP AF II) assays were performed on an xCELLigence RTCA MP Instrument (Agilent). Target Cancer cells were seeded onto a multi-electrode well plate at a density of 5000 cells/well (100 μL of a 50,000 cells/mL stock) and incubated for 24 hr in a 37° C./5% CO2 incubator. mAb MNC2 ADCs or mAb MN20A10-ADCs were prepared as a 2× solution in corresponding growth media and 100 μL of each concentration was added to target cells. As a positive control (100% cell killing) cells were treated with either 1% triton or 1 μM Taxol instead of ADC. After 40-120 hours incubation in a 37° C./5% CO2 incubator cell killing was assessed. In this assay, impedance is measured in real-time. When the adherent cancer cells are killed and come off the electrode surface, impedance (insulation) decreases.
MNC2-ADCs and MN20A10-ADCs were also assayed for their ability to kill both low and high MUC1* expressing cells by monitoring killing in real-time using an xCELLigence instrument. In the xCelligence system, target cancer cells, which are adherent, are plated onto electrode array 96-well plates. Adherent cells insulate the electrode and increase the impedance. The number of adherent cancer cells is directly proportional to impedance. […] Therefore, increasing impedance reflects the growth of the cancer cells and decreasing impedance reflects the killing of the cancer cells.

[2] = system: T47D-MUC1* breast cancer tumors; test: Breast cancer xenograft, IVIS bioluminescence; assay type: in vivo, NOD/SCID/GAMMA (NSG) mice; conditions: from Day 6, 10 mg/kg, DAR 4.2
Description: (§1) FIGS. 57A-57F show bioluminescence photographs of female NOD/SCID/GAMMA (NSG) mice, implanted with 90-day estrogen pellets and then implanted on the right flank with 1M human breast cancer cells that were either T47D wild-type cells that express low to medium levels of MUC1* or T47D-MUC1* cells that had been engineered to express more MUC1*. Day 7 post tumor implantation, the animals were injected with MNC2-MMAE, DAR 3.9, at 5 mg/kg, but was increased to 10 mg/kg for the Day 14 and Day 20 injections.
as §1, with “58A-58F” for “57A-57F”, “MN20A10-MMAE,” for “MNC2-MMAE,”, “3.0,” for “3.9,”
(§2) FIGS. 63A-63H show bioluminescence photographs of female NOD/SCID/GAMMA (NSG) mice, implanted with 90-day estrogen pellets and then implanted on the right flank with 1M human breast cancer cells that were either T47D wild-type cells that express low to medium levels of MUC1* or T47D-MUC1* cells that had been engineered to express more MUC1*. […]

[3] = system: T47D-wt breast cancer tumors; test: Breast cancer xenograft, IVIS bioluminescence; assay type: in vivo, NOD/SCID/GAMMA (NSG) mice; conditions: from Day 6, 10 mg/kg increased to 20 mg/kg, DAR 4.2
Description: as §1
as §1, with “58A-58F” for “57A-57F”, “MN20A10-MMAE,” for “MNC2-MMAE,”, “3.0,” for “3.9,”
as §2

Molecule | ADC concentration at which essentially all the tumor cells are killed ([1]; readout 40 hours post ADC addition) [nM] | ADC concentration at which essentially all (near total) tumor cells were killed [1] [nM] | concentration as low as which cancer cells are potently killed ([1]; readout 0 to 120 hours, MNC2-Exatecan DAR 8.2, MNC2-Deruxtecan DAR 4.0 (FIG. 55)) | tumor burden (bioluminescence) [2] | tumor burden (bioluminescence) [3]
MN20A10-MMAF (conjugate) VH: QVQLVESGGGLVKPGGSLRLSCAASGFTFSTYAMSWIRQAPGKGLEWVASIGRAGSTYYSDSVKGRFTISRDNAKNSLYLQMNSLRAEDTAVYYCARGPIYNDYDEFAYWGQGTLVTVSS VL: EIVLTQSPATLSLSPGERATLSCKSSQSVLYSSNQKNYLAWYQQKPGQAPRLLIYWASTRESGIPARFSGSGSGTDFTLTISSLEPEDFAVYYCHQYLSSLTFGGGTKVEIKR | 56 | 19 | – | – | –
MNC2-Deruxtecan (conjugate) VH: EVQLVESGGGLVKPGGSLRLSCAASGFTFSGYAMSWVRQAPGKGLEWVSTISSGGTYIYYPDSVKGRFTISRDNAKNSLYLQMNSLRAEDTAVYYCARLGGDNYYEYFDVWGKGTTVTVSS VL: DIVLTQSPASLAVSPGQRATITCRASKSVSTSGYSYMHWYQQKPGQPPKLLIYLASNLESGVPARFSGSGSGTDFTLTINPVEANDTANYYCQHSRELPFTFGGGTKVEIKRT | – | 6 | as low as 6.2 nM and even as low as 2.1 nM | essentially eliminated by Day 26 | greatly reduced compared to the controls
